Experimental data: US20190077849A1 (US Dept. of Health and Human Services, published 2019)
Residue numbers refer to the chain shown, from its start. Names and notes keep the numbering of the source. Values joined by “and” are separate entries in the source; they are usually repeats but may differ in a detail not shown here. Equal values may be shown once. Read-outs that look alike come from different tables or passages of the source.

Legend:
[1] = biological target: HIV-1 Env of PVO.04.SG3 pseudovirus (clade B) (HIV-1); test: cell-based or functional assay
[2] = biological target: HIV-1 Env of KER2008.12.SG3 pseudovirus (clade A) (HIV-1); test: cell-based or functional assay
[3] = biological target: HIV-1 Env of ZM106.9.SG3 pseudovirus (clade C) (HIV-1); test: cell-based or functional assay
[4] = biological target: HIV-1 Env of TH966.8.SG3 pseudovirus (clade AE) (HIV-1); test: cell-based or functional assay
[5] = biological target: HIV-1 Env of CNE31.SG3 pseudovirus (clade C) (HIV-1); test: cell-based or functional assay
[6] = biological target: HIV-1 Env of PVO.04.SG3 pseudovirus (clade B) (HIV-1); test: cell-based or functional assay; remark: listed apart in the source
[7] = biological target: HIV-1 Env of 6101.10.SG3 pseudovirus (clade B) (HIV-1); test: cell-based or functional assay
[8] = biological target: HIV-1 Env of KER2008.12.SG3 pseudovirus (clade A) (HIV-1); test: cell-based or functional assay; remark: listed apart in the source
[9] = biological target: HIV-1 Env of ZM106.9.SG3 pseudovirus (clade C) (HIV-1); test: cell-based or functional assay; remark: listed apart in the source
[10] = biological target: T1, HIV-1 Env of 6095.V1.C10.SG3 pseudovirus (clade ACD) (HIV-1); test: cell-based or functional assay
[11] = biological target: HIV-1 Env of TH966.8.SG3 pseudovirus (clade AE) (HIV-1); test: cell-based or functional assay; remark: listed apart in the source
[12] = biological target: HIV-1 Env of CNE31.SG3 pseudovirus (clade C) (HIV-1); test: cell-based or functional assay; remark: listed apart in the source
[13] = biological target: T2, HIV-1 Env of YU2.DG.SG3 pseudovirus (clade B) (HIV-1, UniProt P35961 32-843); test: cell-based or functional assay
[14] = biological target: HIV-1 Env of ZM215.8.SG3 pseudovirus (clade C) (HIV-1); test: cell-based or functional assay
[15] = biological target: HIV-1 Env of PVO.04.SG3 pseudovirus (clade B) (HIV-1); test: cell-based or functional assay; remark: listed apart in the source
[16] = biological target: HIV-1 Env of 6101.10.SG3 pseudovirus (clade B) (HIV-1); test: cell-based or functional assay; remark: listed apart in the source
[17] = biological target: HIV-1 Env of KER2008.12.SG3 pseudovirus (clade A) (HIV-1); test: cell-based or functional assay; remark: listed apart in the source
[18] = biological target: HIV-1 Env of ZM106.9.SG3 pseudovirus (clade C) (HIV-1); test: cell-based or functional assay; remark: listed apart in the source
[19] = biological target: T1, HIV-1 Env of 6095.V1.C10.SG3 …; test: cell-based or functional assay; remark: listed apart in the source
[20] = biological target: HIV-1 Env of TH966.8.SG3 pseudovirus (clade AE) (HIV-1); test: cell-based or functional assay; remark: listed apart in the source
[21] = biological target: HIV-1 Env of CNE31.SG3 pseudovirus (clade C) (HIV-1); test: cell-based or functional assay; remark: listed apart in the source
[22] = biological target: T2, HIV-1 Env of YU2.DG.SG3 pseudovirus …; test: cell-based or functional assay; remark: listed apart in the source
[23] = biological target: HIV-1 Env of ZM215.8.SG3 pseudovirus (clade C) (HIV-1); test: cell-based or functional assay; remark: listed apart in the source
[24] = biological target: T3, MPER peptide (HIV-1); test: MPER peptide binding assay (method not given)
T3 construct: also called gp41 MPER peptide

B1: 10E8 variant 4 (H6-511-4mut VH + rL3-6mut VL) (antibody, V domains shown)
VH: EVRLVESGGGLVKPGGSLRLSCSASGFDFDNAWMTWVRQPPGKGLEWVGRITGPGEGWSVDYAESVKGRFTISRDNTKNTLYLEMNNVRTEDTGYYFCARTGKYYDFWSGYPPGEEYFQDWGQGTLVIVSS
VL: ASELTQDPAVSVALKQTVTITCRGDSLRSHYASWYQKKPGQAPVLLFYGKNNRPSGIPDRFSGSASGNRASLTITGAQAEDEADYYCSSRDKSGSRLSVFGGGTKLTVL
Q: B1 was tested. Which “IC50, pseudovirus neutralization” value [1] did it give?
A: The value was 2.39 µg/mL and 1.13 µg/mL.

Q: And the “IC50, pseudovirus neutralization” value [2]?
A: The value was greater than 50 µg/mL.

Q: What about the “IC50, pseudovirus neutralization” value [3] of the same binder?
A: Its value is greater than 50 µg/mL.

Q: And the “IC50, pseudovirus neutralization” value [4]?
A: Its value is 0.036 µg/mL and 0.021 µg/mL.

Q: And the “IC50, pseudovirus neutralization” value [5]?
A: The value was 1.16 µg/mL.

Q: And the “IC50, pseudovirus neutralization” value [6]?
A: Its value is 0.894 µg/mL.

Q: What about the “IC80, pseudovirus neutralization” value [6] of the same binder?
A: Its value is 8 µg/mL.

Q: And the “IC50, pseudovirus neutralization” value [7]?
A: Its value is 0.011 µg/mL.

Q: What about the “IC80, pseudovirus neutralization” value [7] of the same binder?
A: Its value is 0.09 µg/mL.

Q: What about the “IC50, pseudovirus neutralization” value [8] of the same binder?
A: Its value is greater than 50 µg/mL.

Q: And the “IC80, pseudovirus neutralization” value [8]?
A: The value was greater than 50 µg/mL.

Q: And the “IC50, pseudovirus neutralization” value [9]?
A: The value was greater than 50 µg/mL.

Q: What about the “IC80, pseudovirus neutralization” value [9] of the same binder?
A: The value was greater than 50 µg/mL.

Q: And the “IC50, pseudovirus neutralization” value [10]?
A: Its value is 0.004 µg/mL.

Q: What about the “IC80, pseudovirus neutralization” value [10] of the same binder?
A: Its value is 0.021 µg/mL.

Q: And the “IC50, pseudovirus neutralization” value [11]?
A: Its value is 0.026 µg/mL.

Q: And the “IC80, pseudovirus neutralization” value [11]?
A: The value was 0.169 µg/mL.

Q: What about the “IC50, pseudovirus neutralization” value [12] of the same binder?
A: Its value is 1.74 µg/mL.

Q: And the “IC80, pseudovirus neutralization” value [12]?
A: The value was 4.85 µg/mL.

Q: And the “IC50, pseudovirus neutralization” value [13]?
A: The value was 0.668 µg/mL.

Q: What about the “IC80, pseudovirus neutralization” value [13] of the same binder?
A: The value was 5.32 µg/mL.

Q: And the “IC50, pseudovirus neutralization” value [14]?
A: The value was 0.042 µg/mL.

Q: What about the “IC80, pseudovirus neutralization” value [14] of the same binder?
A: The value was 0.326 µg/mL.

Q: What about the “IC50, pseudovirus neutralization” value [15] of the same binder?
A: Its value is 3.07 µg/mL.

Q: And the “IC80, pseudovirus neutralization” value [15]?
A: Its value is 11.9 µg/mL.

Q: And the “IC50, pseudovirus neutralization” value [16]?
A: Its value is 0.052 µg/mL.

Q: And the “IC80, pseudovirus neutralization” value [16]?
A: Its value is 0.263 µg/mL.

Q: What about the “IC50, pseudovirus neutralization” value [17] of the same binder?
A: The value was greater than 50 µg/mL.

Q: And the “IC80, pseudovirus neutralization” value [17]?
A: The value was greater than 50 µg/mL.

Q: And the “IC50, pseudovirus neutralization” value [18]?
A: The value was greater than 50 µg/mL.

Q: And the “IC80, pseudovirus neutralization” value [18]?
A: Its value is greater than 50 µg/mL.

Q: What about the “IC50, pseudovirus neutralization” value [19] of the same binder?
A: Its value is 0.004 µg/mL.

Q: What about the “IC80, pseudovirus neutralization” value [19] of the same binder?
A: Its value is 0.015 µg/mL.

Q: And the “IC50, pseudovirus neutralization” value [20]?
A: Its value is 0.056 µg/mL.

Q: What about the “IC80, pseudovirus neutralization” value [20] of the same binder?
A: The value was 0.291 µg/mL.

Q: What about the “IC50, pseudovirus neutralization” value [21] of the same binder?
A: The value was 1.32 µg/mL.

Q: And the “IC80, pseudovirus neutralization” value [21]?
A: Its value is 4.04 µg/mL.

Q: What about the “IC50, pseudovirus neutralization” value [22] of the same binder?
A: Its value is 1.49 µg/mL.

Q: And the “IC80, pseudovirus neutralization” value [22]?
A: The value was 6.33 µg/mL.

Q: What about the “IC50, pseudovirus neutralization” value [23] of the same binder?
A: The value was 0.122 µg/mL.

Q: What about the “IC80, pseudovirus neutralization” value [23] of the same binder?
A: The value was 0.502 µg/mL.

B2: 10E8v4-DS (VH Y100eC and VL S30C substitutions) (antibody, V domains shown)
VH: B1 VH with Y111C
VL: B1 VL with S29C
Q: Which “fold tighter binding than 10E8v4” value [24] does the source give for B2 here?
A: Its value is 2 fold.

Q: And the “IC50, pseudovirus neutralization” value [6]?
A: The value was 2.53 µg/mL.

Q: What about the “IC80, pseudovirus neutralization” value [6] of the same binder?
A: Its value is 10.1 µg/mL.

Q: And the “IC50, pseudovirus neutralization” value [7]?
A: The value was 2.41 µg/mL.

Q: What about the “IC80, pseudovirus neutralization” value [7] of the same binder?
A: The value was 22.2 µg/mL.

Q: And the “IC50, pseudovirus neutralization” value [8]?
A: The value was greater than 50 µg/mL.

Q: And the “IC80, pseudovirus neutralization” value [8]?
A: Its value is greater than 50 µg/mL.

Q: What about the “IC50, pseudovirus neutralization” value [9] of the same binder?
A: The value was greater than 50 µg/mL.

Q: And the “IC80, pseudovirus neutralization” value [9]?
A: Its value is greater than 50 µg/mL.

Q: And the “IC50, pseudovirus neutralization” value [10]?
A: Its value is 0.002 µg/mL.

Q: What about the “IC80, pseudovirus neutralization” value [10] of the same binder?
A: The value was 0.017 µg/mL.

Q: What about the “IC50, pseudovirus neutralization” value [11] of the same binder?
A: The value was 0.092 µg/mL.

Q: What about the “IC80, pseudovirus neutralization” value [11] of the same binder?
A: Its value is 0.345 µg/mL.

Q: And the “IC50, pseudovirus neutralization” value [12]?
A: The value was 2.28 µg/mL.

Q: What about the “IC80, pseudovirus neutralization” value [12] of the same binder?
A: Its value is 6.48 µg/mL.

Q: And the “IC50, pseudovirus neutralization” value [13]?
A: Its value is 0.275 µg/mL.

Q: And the “IC80, pseudovirus neutralization” value [13]?
A: The value was 2.44 µg/mL.

Q: And the “IC50, pseudovirus neutralization” value [14]?
A: The value was 0.208 µg/mL.

Q: What about the “IC80, pseudovirus neutralization” value [14] of the same binder?
A: The value was 0.798 µg/mL.

B3: 10E8v4 S100cW-DS (antibody, V domains shown)
VH: B1 VH with S109W, Y111C
VL: B1 VL with S29C
Q: What does the source list for B3?
A: IC50, pseudovirus neutralization [6]: 0.331 µg/mL; IC80, pseudovirus neutralization [6]: 3.67 µg/mL; IC50, pseudovirus neutralization [7]: 1.22 µg/mL; IC80, pseudovirus neutralization [7]: 10.1 µg/mL; IC50, pseudovirus neutralization [8]: > 50 µg/mL; IC80, pseudovirus neutralization [8]: > 50 µg/mL; IC50, pseudovirus neutralization [9]: > 50 µg/mL; IC80, pseudovirus neutralization [9]: > 50 µg/mL; IC50, pseudovirus neutralization [10]: 0.002 µg/mL; IC80, pseudovirus neutralization [10]: 0.013 µg/mL; IC50, pseudovirus neutralization [11]: 0.019 µg/mL; IC80, pseudovirus neutralization [11]: 0.092 µg/mL; IC50, pseudovirus neutralization [12]: 0.806 µg/mL; IC80, pseudovirus neutralization [12]: 2.93 µg/mL; IC50, pseudovirus neutralization [13]: 0.213 µg/mL; IC80, pseudovirus neutralization [13]: 2.2 µg/mL; IC50, pseudovirus neutralization [14]: 0.037 µg/mL; IC80, pseudovirus neutralization [14]: 0.245 µg/mL
